Assay results published in paper PMC3893235 (mAbs, 2013).

What was measured:
human Tie2-Fc = human Tie2-Fc (human, UniProt Q02763 23-748); test: ELISA
human Ang2 protein = human Ang2 protein (Homo sapiens (Human)., UniProt O15123); test: KinExA
biotinylated huAng2 [1] = molecular target: T1, biotinylated huAng2 (human, UniProt O15123, biotin); test: ELISA
biotinylated huAng2 [2] = molecular target: T1, biotinylated huAng2; test: ELISA; remark: listed apart in the source

Chain of human Tie2-Fc (Q02763 23-748): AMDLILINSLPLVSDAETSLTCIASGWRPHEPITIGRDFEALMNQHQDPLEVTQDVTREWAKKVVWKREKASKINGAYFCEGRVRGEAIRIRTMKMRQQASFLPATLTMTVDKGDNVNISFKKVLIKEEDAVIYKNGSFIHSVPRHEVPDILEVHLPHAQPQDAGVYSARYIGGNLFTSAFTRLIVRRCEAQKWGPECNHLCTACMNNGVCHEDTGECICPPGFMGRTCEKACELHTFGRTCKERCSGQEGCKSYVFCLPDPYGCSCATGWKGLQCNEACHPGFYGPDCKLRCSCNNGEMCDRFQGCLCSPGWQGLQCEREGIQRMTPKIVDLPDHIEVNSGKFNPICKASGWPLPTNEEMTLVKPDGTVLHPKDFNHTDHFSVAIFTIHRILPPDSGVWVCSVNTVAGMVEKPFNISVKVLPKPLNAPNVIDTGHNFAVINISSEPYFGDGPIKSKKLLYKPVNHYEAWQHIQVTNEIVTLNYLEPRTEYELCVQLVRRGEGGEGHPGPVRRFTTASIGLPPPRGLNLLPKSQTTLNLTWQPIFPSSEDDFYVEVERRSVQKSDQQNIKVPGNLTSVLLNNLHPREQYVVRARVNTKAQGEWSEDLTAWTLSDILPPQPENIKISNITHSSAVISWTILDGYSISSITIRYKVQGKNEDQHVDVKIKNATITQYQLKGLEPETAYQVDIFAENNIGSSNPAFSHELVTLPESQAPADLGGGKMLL

B1: biotinylated huAng2 (ligand, human, UniProt O15123 19-496, looked up)
chain: YNNFRKSMDSIGKKQYQVQHGSCSYTFLLPEMDNCRSSSSPYVSNAVQRDAPLEYDDSVQRLQVLENIMENNTQWLMKLENYIQDNMKKEMVEIQQNAVQNQTAVMIEIGTNLLNQTAEQTRKLTDVEAQVLNQTTRLELQLLEHSLSTNKLEKQILDQTSEINKLQDKNSFLEKKVLAMEDKHIIQLQSIKEEKDQLQVLVSKQNSIIEELEKKIVTATVNNSVLQKQQHDLMETVNNLLTMMSTSNSAKDPTVAKEEQISFRDCAEVFKSGHTTNGIYTLTFPNSTEEIKAYCDMEAGGGGWTIIQRREDGSVDFQRTWKEYKVGFGNPSGEYWLGNEFVSQLTNQQRYVLKIHLKDWEGNEAYSLYEHFYLSSEELNYRIHLKGLTGTAGKISSISQPGNDFSTKDGDNDKCICKCSQMLTGGWWFDACGPSNLNGMYYPQRQNTNKFNGIKWYYWKGSGYSLKATTMMIRPADF
modifications: biotin
Human Tie2-Fc
  binding result: binds

B2: Ang2 mAb (antibody, V domains shown)
VH: QVQLVESGGGVVQPGRSLRLSCAASGFTFTNYGMHWGRQAPGKGLEWVAVISHDGNNKYYVDSVKGRFTISRDNSKNTLYLQMNSLRAEDTAVYYCAREGIDFWSGLNWFDPWGQGTLVTVSS
VL: EIVLTQSPGTLSLSPGERATLSCRASQSITGSYLAWYQQKPGQAPRLLICGASSWATGIPDRFSGSGSGTDFTLTISRLEPEDFAVYYCQQYSSSPITFGQGTRLEIK
Human Ang2 protein
  Kd: 0.0245 nM
Biotinylated huAng2 [1]
  IC50: 0.2 nM

B3: Cys49Thr mAb (antibody, V domains shown)
VH: QVQLVESGGGVVQPGRSLRLSCAASGFTFTNYGMHWGRQAPGKGLEWVAVISHDGNNKYYVDSVKGRFTISRDNSKNTLYLQMNSLRAEDTAVYYCAREGIDFWSGLNWFDPWGQGTLVTVSS
VL: EIVLTQSPGTLSLSPGERATLSCRASQSITGSYLAWYQQKPGQAPRLLITGASSWATGIPDRFSGSGSGTDFTLTISRLEPEDFAVYYCQQYSSSPITFGQGTRLEIK
Human Ang2 protein
  Kd: 0.037 nM
Biotinylated huAng2 [1]
  IC50: 0.28 nM

B4: Cys49Asp (antibody, V domains shown)
VH: QVQLVESGGGVVQPGRSLRLSCAASGFTFTNYGMHWGRQAPGKGLEWVAVISHDGNNKYYVDSVKGRFTISRDNSKNTLYLQMNSLRAEDTAVYYCAREGIDFWSGLNWFDPWGQGTLVTVSS
VL: EIVLTQSPGTLSLSPGERATLSCRASQSITGSYLAWYQQKPGQAPRLLIDGASSWATGIPDRFSGSGSGTDFTLTISRLEPEDFAVYYCQQYSSSPITFGQGTRLEIK
Biotinylated huAng2 [2]
  binding result: binds

B5: Cys49Asn (antibody, V domains shown)
VH: QVQLVESGGGVVQPGRSLRLSCAASGFTFTNYGMHWGRQAPGKGLEWVAVISHDGNNKYYVDSVKGRFTISRDNSKNTLYLQMNSLRAEDTAVYYCAREGIDFWSGLNWFDPWGQGTLVTVSS
VL: EIVLTQSPGTLSLSPGERATLSCRASQSITGSYLAWYQQKPGQAPRLLINGASSWATGIPDRFSGSGSGTDFTLTISRLEPEDFAVYYCQQYSSSPITFGQGTRLEIK
Biotinylated huAng2 [2]
  binding result: binds

B6: Ang2 mAb variant Cys49Ala (antibody, V domains shown)
VH: QVQLVESGGGVVQPGRSLRLSCAASGFTFTNYGMHWGRQAPGKGLEWVAVISHDGNNKYYVDSVKGRFTISRDNSKNTLYLQMNSLRAEDTAVYYCAREGIDFWSGLNWFDPWGQGTLVTVSS
VL: EIVLTQSPGTLSLSPGERATLSCRASQSITGSYLAWYQQKPGQAPRLLIAGASSWATGIPDRFSGSGSGTDFTLTISRLEPEDFAVYYCQQYSSSPITFGQGTRLEIK
Biotinylated huAng2 [2]
  fold change of potency against Ang2 mAb: ≤ 2.5 fold

B7: Ang2 mAb variant Cys49Gly (antibody, V domains shown)
VH: QVQLVESGGGVVQPGRSLRLSCAASGFTFTNYGMHWGRQAPGKGLEWVAVISHDGNNKYYVDSVKGRFTISRDNSKNTLYLQMNSLRAEDTAVYYCAREGIDFWSGLNWFDPWGQGTLVTVSS
VL: EIVLTQSPGTLSLSPGERATLSCRASQSITGSYLAWYQQKPGQAPRLLIGGASSWATGIPDRFSGSGSGTDFTLTISRLEPEDFAVYYCQQYSSSPITFGQGTRLEIK
Biotinylated huAng2 [2]
  fold change of potency against Ang2 mAb: ≤ 2.5 fold

B8: Ang2 mAb variant Cys49Glu (antibody, V domains shown)
VH: QVQLVESGGGVVQPGRSLRLSCAASGFTFTNYGMHWGRQAPGKGLEWVAVISHDGNNKYYVDSVKGRFTISRDNSKNTLYLQMNSLRAEDTAVYYCAREGIDFWSGLNWFDPWGQGTLVTVSS
VL: EIVLTQSPGTLSLSPGERATLSCRASQSITGSYLAWYQQKPGQAPRLLIEGASSWATGIPDRFSGSGSGTDFTLTISRLEPEDFAVYYCQQYSSSPITFGQGTRLEIK
Biotinylated huAng2 [2]
  binding result: binds

B9: Ang2 mAb variant Cys49Phe (antibody, V domains shown)
VH: QVQLVESGGGVVQPGRSLRLSCAASGFTFTNYGMHWGRQAPGKGLEWVAVISHDGNNKYYVDSVKGRFTISRDNSKNTLYLQMNSLRAEDTAVYYCAREGIDFWSGLNWFDPWGQGTLVTVSS
VL: EIVLTQSPGTLSLSPGERATLSCRASQSITGSYLAWYQQKPGQAPRLLIFGASSWATGIPDRFSGSGSGTDFTLTISRLEPEDFAVYYCQQYSSSPITFGQGTRLEIK
Biotinylated huAng2 [2]
  binding result: binds
